The record followed here is US20120165267A1 (Genentech, published 2012).

The target in one assay is T1, BSA (UniProt P02769 25-607).
T1 construct: Control protein of the spot ELISA
As to the kind of experiment: spot ELISA, phage on coated protein.

The target in assay [1] is T2, DR5-IgG (human, UniProt O14763 56-184).
T2 construct: also called Apo-2-IgG; not shown: IgG part; prepared as in WO98/51793, not described here
As to the kind of experiment: competition phage ELISA: phage clone on wells coated with DR4-IgG, competed by rising soluble DR5-IgG, bound phage detected with anti-M13 antibody-HRP, A450. As for the experimental part:
Relative binding strengths for 4 of the clones from the DR4 library were determined by competition phage ELISA (FIGS. 15 and 16). In this assay, a fixed concentration of phage is added to wells coated with receptor-IgG in the presence of an increasing concentration of receptor-IgG in solution. After incubation to allow binding and washing to remove unbound phage, the bound phage is determined with the HRP-coupled, anti-M13 antibody (Pharmacia). Analysis of the ELISA signal as a function of receptor-IgG concentration in solution by using a 4-parameter fit yields the IC50 value. Since the IC50 value will vary with phage concentration, the phage clones were first titered to determine the dilution giving equal signal strength for the 4 clones.

Assay [2] addresses T2, DR5-IgG. As to the kind of experiment: BIAcore, immobilized receptor-IgG.
Assay [3] concerns the target T2, DR5-IgG. The experiment in a line: BIAcore; against Flag.Apo2L.WT. As for the experimental part: (§1) Briefly, dissociation constants (Kd) for binding of Apo-2L variants (see Tables II and III) to immobilized receptor immunoadhesins were determined from surface plasmon resonance (SPR) measurements on a Pharmacia BIAcore 3000. DR5-IgG (also referred to as Apo-2-IgG) and DcR2-IgG receptor immunoadhesins were prepared as described in WO98/51793 published Nov. 19, 1998 and WO99/10484 published Mar. 9, 1999, respectively. DR4-IgG was prepared as follows. […] Sensorgrams were recorded for Apo-2L binding at concentrations ranging from 15.6 nM to 500 nM in 2-fold increments. The kinetics constants were determined by non-linear regression analysis and used to calculate the binding constants.

The next assay has as its target T3, DcR2-IgG (UniProt Q9UBN6 56-211).
T3 sequence (Q9UBN6 whole entry, species assumed, looked up): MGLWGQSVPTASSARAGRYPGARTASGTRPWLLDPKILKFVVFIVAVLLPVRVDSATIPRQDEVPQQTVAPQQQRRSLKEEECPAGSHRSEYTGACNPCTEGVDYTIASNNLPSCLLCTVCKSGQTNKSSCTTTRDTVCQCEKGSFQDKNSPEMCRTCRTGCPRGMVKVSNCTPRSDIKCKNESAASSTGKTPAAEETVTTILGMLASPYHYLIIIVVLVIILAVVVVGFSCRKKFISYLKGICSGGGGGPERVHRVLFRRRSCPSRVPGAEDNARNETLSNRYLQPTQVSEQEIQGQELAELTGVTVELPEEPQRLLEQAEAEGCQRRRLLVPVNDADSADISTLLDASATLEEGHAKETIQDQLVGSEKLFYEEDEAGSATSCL
The experiment in a line: AlphaQuest (CARB-AQ) displacement of biotinylated Apo2L/TRAIL from receptor-IgG; against Flag-Apo2L.WT.

Assay [4] addresses T2, DR5-IgG. The description is as above.
In another assay the target is T4, DcR1 receptor-IgG (UniProt O14798 26-236).
T4 construct: Captured as receptor-IgG on Protein A beads; construct not described
T4 sequence (O14798 whole entry, species assumed, looked up): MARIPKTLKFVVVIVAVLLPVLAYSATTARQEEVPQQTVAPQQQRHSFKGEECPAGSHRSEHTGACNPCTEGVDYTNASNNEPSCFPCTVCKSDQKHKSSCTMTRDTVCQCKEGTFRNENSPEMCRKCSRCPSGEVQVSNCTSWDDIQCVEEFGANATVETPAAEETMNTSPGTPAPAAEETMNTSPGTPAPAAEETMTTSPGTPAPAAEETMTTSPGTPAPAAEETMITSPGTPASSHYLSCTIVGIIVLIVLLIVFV
The assay is described as above.

The target in assay [5] is T2, DR5-IgG. As to the kind of experiment: BIAcore, immobilized receptor-IgG; against wild-type Apo2L/TRAIL(114-281). As for the experimental part: as §1
KD values determined by BIAcore analysis are reported relative to the value calculated for the wild-type protein. Apoptosis-induction is evaluated from the ED₅₀ value (ng/mL) in the presence and absence of 2 μg/mL M2 antibody (Sigma).
(In general: In SPR one partner is held on a chip, and binding of the other changes the refractive index at the surface.)

B1: DR4-selective phage clone 11 (ligand)
chain: SEETISTVQEKQQNISPLVRERGPQRVAAHITGTRGRSNTLSSPNSKNEKALGRKINSWESSRSGHSFLSNLHLRNGELVIHEKGFYYIYSQTAFRFSEEIKEGTSNDKQMVQYIYKWTDYPDPILLMKSARNSCWSKDAEYGLYSIYQGGIFELKENDRIFVSVTNEHLIDMDHEASFFGAFLVG
notes: also called DR4-11
For B1, the binding result in the assay with BSA is “no binding”; in the assay with DR5-IgG [1] it was “no binding (tested: 1000 nM)”.

B2: DR4-selective phage clone 13 (ligand)
chain: SEETISTVQEKQQNISPLVRERGPQRVAAHITGTRGRSNTLSSPNSKNEKALGRKINSWESSRSGHSFLSNLHLRNGELVIHEKGFYYIYSQTAFRFKEEIKEGTGNDKQMVQYIYKWTDYPDPILLMKSARNSCWSKDAEYGLYSIYQGGIFELKENDRIFVSVTNEHLIDMDHEASFFGAFLVG
notes: also called DR4-13
In the case of B2, the binding result with BSA is on record as “no binding”; in the assay with DR5-IgG [1], “no binding (tested: 1000 nM)”.

B3: Apo2L.DR5-8 (ligand)
chain: VRERGPQRVAAHITGTRGRSNTLSSPNSKNEKALGRKINSWESSRSGHSFLSNLHLRNGELVIHEKGFYYIYSQTQFKFREEIKENTKNDKQMVQYIYKYTSYPDPILLMKSARNSCWSKDAEYGLYSIYQGGIFELKENDRIFVSVTNERLLQMDHEASFFGAFLVG
notes: also called Apo2L/TRAIL.DR5-8
Regarding B3, the “DR5-binding (ratio relative to wild-type Apo2L)” value with DR5-IgG [2] is 0.6 ratio.

B4: Flag.Apo2L.DR5-21 (ligand)
chain: VRERGPQRVAAHITGTRGRSNTLSSPNSKNEKALGRKINSWESSRSGHSFLSNLHLRNGELVIHEKGFYYIYSQTAFKFKEEIKENTKNDKQMVQYIYKYTSYPDPILLMKSARNSCWSKDAEYGLYSIYQGGIFELKENDRIFVSVTNEDLLNMEHEASFFGAFLVG
notes: not shown: N-terminal flag tag from pFLAG-MAC
B4: the “DR5 KD (mut/wt)” value with DR5-IgG [3] worked out at 1 ratio. Moreover, the figures for the “IC50 ratio (mutant/wt)” value with DcR2-IgG and with DR5-IgG [4] were 9.4 ratio and 1.9 ratio, respectively.

B5: Flag.Apo2L.DR4-8 (ligand)
chain: VRERGPQRVAAHITGTRGRSNTLSSPNSKNEKALGRKINSWESSRSGHSFLSNLHLRNGELVIHEKGFYYIYSQTAFRFSEEIKEVTRNDKQMVQYIYKWTDYPDPILLMKSARNSCWSKDAEYGLYSIYQGGIFELKENDRIFVSVTNEHLIDMDHEASFFGAFLVG
notes: as for B4
With B5, the “DR5 KD (mut/wt)” value with DR5-IgG [3] worked out at 1100 ratio. In addition, the “IC50 ratio (mutant/wt)” value is 15 ratio with DcR2-IgG and 5.5 ratio with DcR1 receptor-IgG.

B6: Apo2L/TRAIL(114-281) mutant DR5-4 (ligand)
chain: VRERGPQRVAAHITGTRGRSNTLSSPNSKNEKALGRKINSWESSRSGHSFLSNLHLRNGELVIHEKGFYYIYSQTAFRFREEIKENTKNDKQMVQYIYKYTSYPDPILLMKSARNSCWSKDAEYGLYSIYQGGIFELKENDRIFVSVTNEQLLDMNHEASFFGAFLVG
notes: Untagged, from pAPOK5.0
Take B6: the “KD ratio (mutant/wt)” value with DR5-IgG [5] was found to be 1.3 ratio.

B7: Apo2L.DR5-8C (ligand)
chain: VRERGPQRVAAHITGTRGRSNTLSSPNSKNEKALGRKINSWESSRSGHSFLSNLHLRNGELVIHEKGFYYIYSQTQFKFREEIKENTKNDKQMVQYIYKYTSYPDPILLMKSARNSCWSKDAEYGLYSIYQGGIFELKENDRIFVSVTNEHLLDMDHEASFFGAFLVG
notes: Subcloned into pAPOK5.0 (114-281 form)
Take B7: the “DR5-binding (ratio relative to wild-type Apo2L)” value with DR5-IgG [2] worked out at 0.6 ratio.

B8: Apo2L.DR5-8B (ligand)
chain: VRERGPQRVAAHITGTRGRSNTLSSPNSKNEKALGRKINSWESSRSGHSFLSNLHLRNGELVIHEKGFYYIYSQTQFKFREEIKENTKNDKQMVQYIYKYTSYPDPILLMKSARNSCWSKDAEYGLYSIYQGGIFELKENDRIFVSVTNEHLIDMDHEASFFGAFLVG
notes: as for B7
Turning to B8, in the assay with DR5-IgG [2], the “DR5-binding (ratio relative to wild-type Apo2L)” value came to 0.6 ratio.

B9: Apo2L/TRAIL(114-281) mutant DR5-5 (ligand)
chain: VRERGPQRVAAHITGTRGRSNTLSSPNSKNEKALGRKINSWESSRSGHSFLSNLHLRNGELVIHEKGFYYIYSQTSFRFTEEIKENTKNDKQMVQYIYKYTSYPDPILLMKSARNSCWSKDAEYGLYSIYQGGIFELKENDRIFVSVTNEGLLDMNHEASFFGAFLVG
notes: Untagged, from pAPOK5.0
B9: the “KD ratio (mutant/wt)” value with DR5-IgG [5] was 2.5 ratio.

B10: Flag.Apo2L.DR5-2 (ligand)
chain: VRERGPQRVAAHITGTRGRSNTLSSPNSKNEKALGRKINSWESSRSGHSFLSNLHLRNGELVIHEKGFYYIYSQTAFKFKEEIKENTKNDKQMVQYIYKYTSYPDPILLMKSARNSCWSKDAEYGLYSIYQGGIFELKENDRIFVSVTNEHLIDMDHEASFFGAFLVG
notes: as for B4
As for B10, the “DR5 KD (mut/wt)” value with DR5-IgG [3] was 1.9 ratio. The “IC50 ratio (mutant/wt)” value came out at 5 ratio with DcR2-IgG and 2.8 ratio in the assay with DR5-IgG [4].

B11: Apo2L/TRAIL(114-281) mutant DR5-11 (ligand)
chain: VRERGPQRVAAHITGTRGRSNTLSSPNSKNEKALGRKINSWESSRSGHSFLSNLHLRNGELVIHEKGFYYIYSQTAFRFKEEIKENTKNDKQMVQYIYKYTSYPDPILLMKSARNSCWSKDAEYGLYSIYQGGIFELKENDRIFVSVTNEGLVDMSHEASFFGAFLVG
notes: Untagged, from pAPOK5.0
B11: the “KD ratio (mutant/wt)” value with DR5-IgG [5] stood at 2.2 ratio.

B12: Apo2L/TRAIL(114-281) mutant DR5-21 (ligand)
chain: VRERGPQRVAAHITGTRGRSNTLSSPNSKNEKALGRKINSWESSRSGHSFLSNLHLRNGELVIHEKGFYYIYSQTAFKFKEEIKENTKNDKQMVQYIYKYTSYPDPILLMKSARNSCWSKDAEYGLYSIYQGGIFELKENDRIFVSVTNEDLLNMEHEASFFGAFLVG
notes: Untagged, from pAPOK5.0; h-0007 lists D267Q
Turning to B12, in the assay with DR5-IgG [5], the “KD ratio (mutant/wt)” value was 1.2 ratio.

B13: Flag.Apo2L.DR5-23 (ligand)
chain: VRERGPQRVAAHITGTRGRSNTLSSPNSKNEKALGRKINSWESSRSGHSFLSNLHLRNGELVIHEKGFYYIYSQTAFKFREEIKENTKNDKQMVQYIYKYTSYPDPILLMKSARNSCWSKDAEYGLYSIYQGGIFELKENDRIFVSVTNESLLDMEHEASFFGAFLVG
notes: as for B4
Regarding B13, in the assay with DR5-IgG [3], the “DR5 KD (mut/wt)” value came out at 2.4 ratio. Further, the “IC50 ratio (mutant/wt)” value was found to be 24 ratio with DcR2-IgG and 2.3 ratio in the assay with DR5-IgG [4].

B14: Flag.Apo2L.DR5-8 (ligand)
chain: VRERGPQRVAAHITGTRGRSNTLSSPNSKNEKALGRKINSWESSRSGHSFLSNLHLRNGELVIHEKGFYYIYSQTQFKFREEIKENTKNDKQMVQYIYKYTSYPDPILLMKSARNSCWSKDAEYGLYSIYQGGIFELKENDRIFVSVTNERLLQMDHEASFFGAFLVG
notes: also called Flag-Apo21.DR5-8; not shown: N-terminal flag tag from pFLAG-MAC
On to B14, for which the “DR5 KD (mut/wt)” value in the assay with DR5-IgG [3] was found to be 0.8 ratio. In the assay with DR5-IgG [4], the “IC50 ratio (mutant/wt)” value stood at 0.7 ratio.

B15: Apo2L/TRAIL(114-281) mutant DR5-23 (ligand)
chain: VRERGPQRVAAHITGTRGRSNTLSSPNSKNEKALGRKINSWESSRSGHSFLSNLHLRNGELVIHEKGFYYIYSQTAFKFREEIKENTKNDKQMVQYIYKYTSYPDPILLMKSARNSCWSKDAEYGLYSIYQGGIFELKENDRIFVSVTNESLLDMEHEASFFGAFLVG
notes: Untagged, from pAPOK5.0
For B15, the “KD ratio (mutant/wt)” value with DR5-IgG [5] came to 2.4 ratio.

B16: Flag.Apo2L.DR5-1 (ligand)
chain: VRERGPQRVAAHITGTRGRSNTLSSPNSKNEKALGRKINSWESSRSGHSFLSNLHLRNGELVIHEKGFYYIYSQTAFKFKEEIKENTKNDKQMVQYIYKYTSYPDPILLMKSARNSCWSKDAEYGLYSIYQGGIFELKENDRIFVSVTNEALIDMDHEASFFGAFLVG
notes: as for B4
In the case of B16, the “DR5 KD (mut/wt)” value in the assay with DR5-IgG [3] amounted to 2.2 ratio. The “IC50 ratio (mutant/wt)” value with DcR2-IgG came to 32 ratio; with DR5-IgG [4] it was 2.4 ratio.
